From the supplement of paper PMC12636428

test system: Saccharomyces cerevisiae; test: transcriptional activation domain activity (GFP:mCherry ratio, weighted mean of sorted bins, harmonized to initial dataset scale) (arbitrary fluorescence ratio units); higher = stronger transcriptional activation; conditions: beta-estradiol 1 µM; induction time 4 h
How it was run: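 The listed activation activity is a read-weighted mean of bin median fluorescence, averaged across barcodes and linearly mapped onto the initial dataset scale. Barcoded tiles, fused to an estradiol-inducible synthetic transcription factor, were integrated at URA3 in yeast diploids bearing a GFP reporter. Cells were held 4 hours at 30 °C in SC with 1 uM beta-estradiol, sorted into 8 GFP:mCherry bins, and sequenced, and tiles with fewer than 50 reads were excluded.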

| Sequence | transcriptional activation domain activity |
| --- | --- |
| MVFLLIFIVSTLFFCLFLYLLLPSFFYVIFALLAHIFVFSVSLHRQPLLLYLS | 49300 |
| KQAAEEGDRPKQGGKESGEKENGKAEGSQAREKDRPADGEGKSSDEAGKAKDE | 12500 |
| EKEEAEKKKKEEAEEKEKEKEKKEKKGGKKKRASKKSSRKSKSKEAAGSGADE | 25500 |
| STPSAFGAQPTQTTGAFGQPAQTSAFGAQPATGGFGNTGSAFGQARPSAFGST | 16900 |
| KQYCVRPNSGRIEPGKEVEVTVLLQAMKQEPPIDAKCRDKFLVQSVAVTADKE | 51300 |
| DDLQQLLEDLGNIDHSDEKLWKEITDQAMWLGNTMDPTAAAGSEIDFTDYLGP | 144000 |
| MSSPKRITVLISGSGTNLQALMDAAGSSRLPNAQITHVISSRSAVKGLERAST | 53800 |
| RSRAEGGSSPGRGGSEDGAGAGKPGKERRDKSRGARAKQCGCKAVNQDKSCEC | 21900 |
| VYIGACWGHWAQLNVFLIPGLVVWFIDRGIRFARTALLHYNFLPSGHMGFRAA | 77700 |
| FLYTLHIYDGQEGYHFLFNSFGNGSEWLQWSDGEQWALLYAQNYTMIIWVWYM | 15000 |
| MFYKLLIIYCFLFFRIYFLFHFFSYIYFFFFLFSISNFVISLPSNLFSHLLFF | 47000 |
| KGAKDEKKEDAKGGEEGKDATKQREKEESKGGKLESTPSKEFSDGKEQQEKKG | 40400 |
| DGGDGDDGSGGEVERAGKSGRAKREGKRGAEEEEEERGDGRAARKTAEKRKKR | < 6570 |
| ERDRKEQNGGGEGGRGGRHKKGARGAERRGHGSGSEGGGKAGANPERRTGGRG | < 6570 |
| SRRPAKKVKEEGEKKAASGDKKGRGKALSEKSKPDAKGSKAKSKHKKDSDSEE | 24900 |
| NQLHRPPPEILKLFEASVRFEMQIRRLIAKDWLCVATWWLLKARATLANCNRH | 69100 |
| RDESLRTKDKSVSRSRSRSRARDEETDDRRERSRSADRESRREGRGRSATPQG | 34800 |
| EAEIGVAAEDKISPQKARRKAKVEKEDGKAEEGAEGQKTTKRRRKTKEEKEEE | 14900 |
| HQLYTDWLYLWWIAYTNKMHGRIYIILKESLKNLPIFGWGAQFYNFIFLCRNW | 56400 |
| MMDCGRRTSFQAFIFLSLFLVHQVSFCCVYLICFFFFLFFLSFLYSFPFPFFF | 26400 |
| YSQLILYLLAKAKLHWNELQNLQVIFADLFEHIHIAGILPNKYQTLSVMANAL | 56500 |

| Sequence | transcriptional activation domain activity |
| --- | --- |
| MSTWLLRVFFSTCLYIIIWFFFHSFPFLSFFLPCLCCMFFFLACCLVSLSRVL | 35200 |
| LFYFIFILFFFTLGDICFRFFYFMGPCFVLFKMVLLIFFSPFSFLHLSLSWVT | 43100 |
| KSWGKSLVGLMGRLKRQPICVLVKTDEINHLLHMILYVRENEETSCIKIVHFC | 37900 |
| MPGTCTLPYYSNLPIMLVLVLIRRSNYFFFLVSLTTGSFLTTFFSLFSVRLPL | 67000 |
| MDAAVATEPIPKKRGRPRKVASEETPAVEPKGVRKASTKTAAAVKKEEAPKKV | 37900 |
| IVKGTDAQQLAQIVVANLFCAILMRQDYVINAFFNFFCSVPTSWPLAIRRVCA | 53100 |
| TPSSLLHLFPRVQEFLLFYSIHLSISWVWSCLILFYDVSFTIFSIFIILLLFL | 60300 |
| MSSLFFLRSPCFYLYLYHYLVSFLIFMAFCLVCCLPLLFHFWVFCLLLCFRIY | 63600 |
| MPGHALVDIQNTFGCTFIGLVISILYLILNFGNVENLEYNMWAMNLQVDITGL | 56500 |
| EKKVKAPKSPKKEKKKEEAEAAAPATEEPAKDEEPAAAEAPAAEEAPKEEAAA | 41200 |
| GESKEERRSKKDKKRKREAEGVPAEEEASEVQDKKKKKSKNASAMEVDSATPT | 30900 |
| MHGTGVFFGCLGIHIFFFLSSLLFHVDIFVIRDIFFNFLLFFFIFFLRILYSM | 42700 |
| AKILRELFLLYQPPEELIPSLQQWYLLVQACSGIVTSSDFGNTLFGIARLCLP | 30500 |
| TRPYEMALKFVNVTDTNELLRMRQFACDICDYAPHLLDNDNISLLIVLLILTR | 45000 |
| AFGGGNTTGGGMFGNNTSKPAFGGTSNTGGALFGGGSNTNTGTAGFGTSFGGT | 13900 |
| TYSDVDGEILWPPPVMNVMMIERCGAVCCRVSVGWVLLRRWAQVKRKWETIVL | 41700 |
| KLGAAGGGRGSERDKRRRGEGERGGGDAVARAGEGEGRGRGRRRRKRSAACAG | 39200 |
| FWRYRQNQYAYILSYIVGSETSEERISVMRKNGTYHPAPYQFVYLRVRIANLS | 38700 |
| SSSSTPSAFSSATPSSLFGSGASSTAKPFGSAASPSPFGAAKSSPSLFGSGGG | 69900 |
| AEDKARKEAEDKAREEAEEKAREEQEEAARARADAEAKKAALEAKREAEAKAK | 16300 |
| GEIAQLWDFNVDQFNMTPSNSSGSATISAPNSFTSDIPQYNHGSLGNSVSKSS | 48300 |

| Sequence | transcriptional activation domain activity |
| --- | --- |
| TWHHSIYVPYSFVAAYDHPVCYLIHRFLPLYLTAITFRFHIMTYLLLVGLFSL | 45200 |
| TIVLEELRRASYWGRPSLERSWLLLDMTIKSFTGFIRLLDGDLARTICLFYLV | 76100 |
| PIHALFCTHIWLLFKLCILCVLFLLSLLCLYGGSMINTGLRIILHLLLCVYLF | 81800 |
| MSTVPRLRLHLHLHLHLHLRLHLHLQLSTPKPTEDGAEHGTERGTERGTERGT | 49700 |
| TDAAADAPKEDEVKEGEEKMETESTEEKKESESAEEKPAEETAASADTEMAEA | 25600 |
| MFCLRSWLPLLFIPTNASPAFIFLFFVCTYFLNRPCVYCSFLLLILFATSCYW | 36100 |
| CLYVHQQLRESLGLGWLRQDTFFNYTRDRICVWNLNRKYSAFSTITSTVTHVR | 39700 |
| SYITYYQSRQFVMIPWYFYFIIITCVLTIIFVMAVCFLFYIHLLLPILVMLWS | 35400 |
| MLSIYNLQTRGIHPPNVVVGMAIFCGGLAHIFLLLFRSWNVGIICSMSCHILL | 66200 |
| RLWLVRGPFTELFRRFLFSNIRFTSKVTIISYIGTYYAIGAAWIMTTANYLAI | 47600 |
| EDGRGSRRRKSRSRGREEEDSSSRRRKDRSRSRSVDKERKKRKRDKSEDRKAR | 31800 |
| MFPYSWFRLLFRLLFLWPFLLFQLLFPWPTTLLILWPFRLLILWPIRLLILWP | 73200 |
| YTSLIILVTWLSIVFSKFVLHRRTFGLVFVHLHFFFLFALFSFFFSYCVCIRI | 60600 |
| SATARTTTTTRTATSTTTTAKPSTTTRPSTTTTTTAARRPGTTTTTPARTSVT | 38700 |
| DVDVDVGVDGRGRGFEAGDGREDGKGEEEGGRRLKRAGTDGEAVGGARAREVW | 32500 |
| EKEAVVKDTASSTRAKTTRSKPKAAPAAAEPPKTATRGRGAAKLAADKPAPKT | 23400 |
| EEPKAEEAKAEEAAKEEPKAEESKAEEPKAEEPKAEEPKAEEEPKAEEAAKEE | 7200 |
| QPSQVPQEDQPEHEPERKRRPGRPRGSKNRKPRADSAKQPQQQQQQQQQPHPQ | 59500 |
| SKADTEDGEEAVDDTATEEKPEAKAEEVTEETTTEKEAEAAAESAAAEKLRRD | 25700 |
